Assay results as given in PMC2119102 (The Journal of Experimental Medicine, 1992).

Biological target: T1, human interleukin 5 receptor encoded by cDNA clone lambda-h5R.27 (human, UniProt Q01344 21-395)
T1 sequence: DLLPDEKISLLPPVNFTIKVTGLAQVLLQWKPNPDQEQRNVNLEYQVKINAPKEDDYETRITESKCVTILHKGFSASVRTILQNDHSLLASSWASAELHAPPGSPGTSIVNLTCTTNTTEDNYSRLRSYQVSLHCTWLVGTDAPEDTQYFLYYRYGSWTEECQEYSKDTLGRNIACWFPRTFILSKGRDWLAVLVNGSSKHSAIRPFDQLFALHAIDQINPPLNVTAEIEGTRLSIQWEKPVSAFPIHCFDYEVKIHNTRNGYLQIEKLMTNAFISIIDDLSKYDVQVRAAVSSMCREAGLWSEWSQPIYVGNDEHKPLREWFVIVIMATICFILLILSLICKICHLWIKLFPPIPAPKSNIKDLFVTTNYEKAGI
Assay: radioligand binding

Kd: 250 pM
B1: recombinant murine interleukin 5, 35S-methionine labelled (ligand, mouse, UniProt P04401 21-133, looked up)
chain: MEIPMSTVVKETLTQLSAHRALLTSNETMRLPVPTHKNHQLCIGEIFQGLDILKNQTVRGGTVEMLFQNLSLIKKYIDRQKEKCGEERRRTRQFLDYLQEFLGVMSTEWAMEG
modifications: 35S-methionine labelled
